Reference: US20110143953A1

What was measured:
[1] = biological target: AKT1 (as used in SPR), P31749; experiment: SPR
transferrin, P02787 [2] = experiment: SPR
transferrin, P02787 [3] = experiment: SPR, transferrin immobilized, Kd from kinetics

transferrin, P02787, sequence (P02787 20-698 limits assumed): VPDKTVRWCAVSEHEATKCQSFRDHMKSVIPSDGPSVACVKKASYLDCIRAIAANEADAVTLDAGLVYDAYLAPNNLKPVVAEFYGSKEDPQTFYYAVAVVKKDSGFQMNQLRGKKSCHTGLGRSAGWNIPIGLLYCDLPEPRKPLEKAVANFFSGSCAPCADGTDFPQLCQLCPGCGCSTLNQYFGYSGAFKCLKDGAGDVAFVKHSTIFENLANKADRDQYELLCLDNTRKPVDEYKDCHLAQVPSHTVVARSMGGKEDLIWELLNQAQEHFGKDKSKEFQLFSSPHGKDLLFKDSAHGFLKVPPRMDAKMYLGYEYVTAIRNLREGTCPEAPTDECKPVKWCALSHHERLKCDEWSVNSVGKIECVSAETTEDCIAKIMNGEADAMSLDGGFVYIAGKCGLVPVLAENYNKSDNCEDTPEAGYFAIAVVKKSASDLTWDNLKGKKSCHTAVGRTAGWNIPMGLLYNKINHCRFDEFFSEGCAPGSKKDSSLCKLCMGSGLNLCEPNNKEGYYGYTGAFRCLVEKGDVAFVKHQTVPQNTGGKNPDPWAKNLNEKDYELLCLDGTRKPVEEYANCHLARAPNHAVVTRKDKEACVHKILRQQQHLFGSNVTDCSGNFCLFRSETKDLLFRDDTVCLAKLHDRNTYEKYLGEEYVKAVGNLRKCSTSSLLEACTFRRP
AKT1 (as used in SPR), P31749, sequence (P31749 whole entry): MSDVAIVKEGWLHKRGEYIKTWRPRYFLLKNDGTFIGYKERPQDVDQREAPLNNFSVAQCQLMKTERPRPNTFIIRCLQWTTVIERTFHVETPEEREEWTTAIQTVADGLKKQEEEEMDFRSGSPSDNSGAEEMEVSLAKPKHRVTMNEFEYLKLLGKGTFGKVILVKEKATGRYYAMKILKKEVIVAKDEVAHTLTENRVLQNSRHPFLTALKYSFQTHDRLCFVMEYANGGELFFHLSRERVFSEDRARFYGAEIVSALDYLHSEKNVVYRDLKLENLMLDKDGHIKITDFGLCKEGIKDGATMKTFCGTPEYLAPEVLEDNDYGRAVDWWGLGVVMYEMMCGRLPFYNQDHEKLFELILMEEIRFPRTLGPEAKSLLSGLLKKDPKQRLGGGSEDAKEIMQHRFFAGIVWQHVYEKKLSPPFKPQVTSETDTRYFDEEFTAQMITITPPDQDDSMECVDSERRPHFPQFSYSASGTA

B1: SYN23-26 (designed binder)
peptide 1: FRGWAHIFFGPHVIYRGGSG
peptide 2: AHKVVPQRQIRHAYNRYGSG
modifications: not fully specified; C-terminal glycine joined to one of the two amines (alpha or epsilon) of a lysine linker; chain 1 pos 20 and chain 2 pos 20: the C-terminal Gly of each 20-mer is joined to the alpha or the epsilon amine of one branching lysine (about 1 nm spacing). The lysine is followed by a C-terminal cysteine whose thiol is biotinylated for the array. The Lys-Cys core is left out of the …
- Kd [1]: 1 nM
- Kd (transferrin, P02787 [2]): 141 nM
- Kd (transferrin, P02787 [3]): 150 nM
